# Assay results published in article PMC12548092, “Exploring Helical Fraying Linked to Dynamics and Catalysis in Adenylate Kinase” (Biochemistry, 2025).
# Test system: Nc1ncnc2c1ncn2[C@@H]1O[C@H](COP(=O)(O)OP(=O)(O)OP(=O)(O)O)[C@@H](O)[C@H]1O
# Assay: purified protein
# Conditions: varied substrate not named in table (text: substrates ATP and AMP)
Substance,Km [µM],kcat [s⁻¹],kcat/Km [M⁻¹ s⁻¹]
AKeco (Escherichia coli K-12),110 ± 9,360 ± 11,3.3e+06
AKeco (Escherichia coli K-12; E114A),36 ± 7,254,7.1e+06
